# Laboratory results published in paper PMC3145889 (Oncogene, 2011).
# Ends that are not written are not given here.
# T1: His-HMG20b (human, UniProt Q9P0W2 1-317)
# T1 sequence: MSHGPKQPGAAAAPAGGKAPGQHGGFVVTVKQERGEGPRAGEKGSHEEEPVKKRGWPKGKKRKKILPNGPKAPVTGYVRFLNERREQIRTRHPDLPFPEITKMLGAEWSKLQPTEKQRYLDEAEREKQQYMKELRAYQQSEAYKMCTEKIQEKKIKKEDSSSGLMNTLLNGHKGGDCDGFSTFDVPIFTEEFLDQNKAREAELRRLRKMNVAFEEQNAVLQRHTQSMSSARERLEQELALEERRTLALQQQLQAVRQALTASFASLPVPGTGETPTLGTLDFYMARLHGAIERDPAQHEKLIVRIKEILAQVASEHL
# Assays:
# [1] = biological target: HMG20b (human (endogenous in 293T and HeLa)) (UniProt Q9P0W2); test: co-IP
# His-HMG20b = biological target: T1, His-HMG20b; test: pull-down
fraction of the protein present in the complex [1],binding result (His-HMG20b),Molecule
< 5%,–,"BRCA2, P51587 1-3418"
–,binds,"YSVIENSALAFYTSCSRKTSVSQTSLLEAKKWLRE (also: biotin label, position not given here) [Biotin-labelled BRC5 peptide (BRCA2 1661-1695)]"
